The labels stand for the following.
B1: S5V2–29 recombinant IgG (antibody, V domains shown)
VH: QVQLQESGPGLVKPSETLSLTCTVSGGSVSSNIYYWSWIRQTPGKGLEWLGYFYHSGSSNYNPSLKSRVTISGDMSKNQFSLKLKSVTAADTAIYYCARGGVENLMLVAVIQEMWYFDLWGRGTLVTVSG
VL: DIQMTQTPSSLSASVGDRVTITCRASQSIGASLNWYQQKPGEAPKFLIYAASNLQSGVPSRFSGSGSGTDFTLTISSLQPEDFATYYCQQQGTFGQGTKLEIK
B2: S8V1–157 recombinant human IgG1 (antibody, V domains shown)
VH: EVQLVQSGAEVKKPGASVKVSCKVSGYRLTALSMHWVRQAPGKGLEWMGGFDPEEDETIYAQNFQGRVTLTEDTSTDTVYMELSSLRSEDTGVYYCATLMGANPFDYWGQGTLIIVSG
VL: not shown
B3: HC19 recombinant IgG (antibody, V domains shown)
VH: QVQLKESGPGLVAPSQSLSITCTVSGFLLISNGVHWVRQPPGKGLEWLGVIWAGGNTNYNSALMSRVSISKDNSKSQVFLKMKSLQTDDTAMYYCARDFYDYDVFYYAMDYWGQGTSVTVSS
VL: QAVVTQESALTTSPGETVTLTCRSSTGAVTTSNYANWVQEKPDHLFTGLIGGTNNRAPGVPARFSGSLIGDKAALTITGAQTEDEAIYFCALWYSNHWVFGGGTKLTVL

For this test, the target named is full-length, membrane-anchored A/Aichi/02/1968(H3N2)(X-31) HA (Influenza A virus …, UniProt P03437). As to the kind of experiment: flow cytometry on cells.
With B1, the binding result was “binds”. Regarding B2, the binding result is on record as “binds”.

Turning to B3, the binding result is “binds”.

Source of the values: publication PMC10760138 (bioRxiv, 2024).
